Data on 37 sequences can be found in the Immune Epitope Database (IEDB).

Among the targets are HLA-A*03:01; HLA-A*11:01; HLA-A*31:01; HLA-A*33:01; HLA-A*68:01.
What all share (assay): IEDB peptide-MHC binding, purified MHC/competitive/radioactivity; filed as Kd, often an IC50 or EC50 that approximates it; ≥ and ≤ were set here for values at or beyond the usual limits of such assays
The mark [1] stands for this setting: source organism: Vaccinia virus WR.
Setting [2] is: source organism: Mammarenavirus lassaense.
Where [3] appears, read: source organism: SARS coronavirus Tor2.
Where [4] appears, read: source organism: Dengue virus 2 Jamaica/1409/1983.
Setting [5] is: source organism: Dengue virus 1 Brazil/97-11/1997.
Setting [6] is: source organism: Dengue virus 3 Martinique/1243/1999.
Setting [7] is: source organism: Mammarenavirus brazilense.
Where [8] appears, read: source organism: Dengue virus 1 Nauru/West Pac/1974.
Where [9] appears, read: source organism: Dengue virus 4 Philippines/H241/1956.
Where [10] appears, read: source organism: Mammarenavirus guanaritoense.

A word on the Kd: it is the constant that tells how readily two partners part at equilibrium. As for PIYSHTERDK, the Kd is 0.932 µM with HLA-A*03:01 (setting [1]); 6.59 µM in the assay with HLA-A*11:01 (setting [1]); 0.977 µM with HLA-A*31:01 (setting [1]); not below 54.6 µM with HLA-A*33:01 (setting [1]); 14 µM in the assay with HLA-A*68:01 (setting [1]).

As to DLTTMPTYK, the Kd amounted to 0.757 µM in the assay with HLA-A*03:01 (setting [1]); 0.293 µM in the assay with HLA-A*11:01 (setting [1]); 0.63 µM with HLA-A*31:01 (setting [1]); 0.914 µM with HLA-A*33:01 (setting [1]); 0.128 µM in the assay with HLA-A*68:01 (setting [1]).

TLMSIISTFH: the Kd in the assay with HLA-A*03:01 (setting [2]) was 6.37 µM; in the assay with HLA-A*11:01 (setting [2]), not below 34.6 µM; with HLA-A*31:01 (setting [2]), 8.71 µM; with HLA-A*33:01 (setting [2]), 15.9 µM; in the assay with HLA-A*68:01 (setting [2]), 2.92 µM.

TVSALVYDNK: the Kd with HLA-A*03:01 (setting [3]) was 0.488 µM; with HLA-A*11:01 (setting [3]), 0.0206 µM; with HLA-A*31:01 (setting [3]), 4.89 µM; in the assay with HLA-A*33:01 (setting [3]), 9.75 µM; in the assay with HLA-A*68:01 (setting [3]) it was 0.00588 µM.

Regarding IAARGYISTR, in the assay with HLA-A*68:01 (setting [4]), the Kd is 0.012 µM.

In the case of AANTVIWDY, the Kd was not below 78 µM in the assay with HLA-A*03:01 (setting [3]); 0.107 µM with HLA-A*11:01 (setting [3]); not below 38.1 µM with HLA-A*31:01 (setting [3]); not below 77.7 µM with HLA-A*33:01 (setting [3]); 14.2 µM with HLA-A*68:01 (setting [3]).

Take LTDTEYRAR: the Kd is not below 78 µM with HLA-A*03:01 (setting [1]); not below 53.9 µM with HLA-A*11:01 (setting [1]); not below 77.9 µM in the assay with HLA-A*31:01 (setting [1]); not below 77.7 µM with HLA-A*33:01 (setting [1]); not below 42.6 µM with HLA-A*68:01 (setting [1]).

Take VTDLENRLKK: the Kd with HLA-A*03:01 (setting [1]) is 0.291 µM; with HLA-A*11:01 (setting [1]), 0.0145 µM; with HLA-A*31:01 (setting [1]), not below 37.7 µM; in the assay with HLA-A*33:01 (setting [1]) it was not below 70 µM; in the assay with HLA-A*68:01 (setting [1]) it was not below 31.7 µM.

As for AQQFANVISK, the Kd with HLA-A*03:01 (setting [1]) is 0.0838 µM; in the assay with HLA-A*11:01 (setting [1]), 0.00268 µM; with HLA-A*31:01 (setting [1]), 1.94 µM; in the assay with HLA-A*33:01 (setting [1]), not below 70 µM; with HLA-A*68:01 (setting [1]), 17.6 µM.

Turning to ITKEIKNRDK, the Kd is 7.89 µM with HLA-A*03:01 (setting [1]); 18.4 µM with HLA-A*11:01 (setting [1]); not below 10 µM in the assay with HLA-A*31:01 (setting [1]); not below 35.8 µM in the assay with HLA-A*33:01 (setting [1]); 2.21 µM with HLA-A*68:01 (setting [1]).

Consider FASADNHPK, for which the Kd is 7.96 µM in the assay with HLA-A*03:01 (setting [1]); 0.174 µM with HLA-A*11:01 (setting [1]); 12.4 µM in the assay with HLA-A*31:01 (setting [1]); 1.24 µM in the assay with HLA-A*33:01 (setting [1]); 0.0557 µM with HLA-A*68:01 (setting [1]).

Consider ELAELLEMKY, for which the Kd was 14.2 µM with HLA-A*03:01 (setting [1]); not below 29.5 µM with HLA-A*11:01 (setting [1]); not below 50.8 µM with HLA-A*31:01 (setting [1]); not below 70 µM with HLA-A*33:01 (setting [1]); 2.84 µM with HLA-A*68:01 (setting [1]).

Take KIKQDVRDK: the Kd was 0.241 µM in the assay with HLA-A*03:01 (setting [1]); 19.8 µM with HLA-A*11:01 (setting [1]); 9.94 µM in the assay with HLA-A*31:01 (setting [1]); not below 77.7 µM in the assay with HLA-A*33:01 (setting [1]); not below 24.9 µM in the assay with HLA-A*68:01 (setting [1]).

Take TTLSRTSKK: the Kd with HLA-A*03:01 (setting [4]) came to 0.0143 µM; in the assay with HLA-A*11:01 (setting [4]), 0.158 µM; with HLA-A*68:01 (setting [4]) it was 0.302 µM.

Consider ELGIAIFNNR, for which the Kd with HLA-A*03:01 (setting [1]) was 0.961 µM; in the assay with HLA-A*11:01 (setting [1]), 1.47 µM; with HLA-A*31:01 (setting [1]) it was 0.0599 µM; with HLA-A*33:01 (setting [1]), 0.16 µM; with HLA-A*68:01 (setting [1]), 0.0406 µM.

Consider EILKINSVKY, for which the Kd with HLA-A*03:01 (setting [1]) came to 6.09 µM; in the assay with HLA-A*11:01 (setting [1]), 6.29 µM; with HLA-A*31:01 (setting [1]), 1.04 µM; in the assay with HLA-A*33:01 (setting [1]), 5.17 µM; with HLA-A*68:01 (setting [1]), 3.87 µM.

As for WSYYCAGLK, the Kd in the assay with HLA-A*03:01 (setting [5]) amounted to 0.0122 µM.

For VTFKNAHAK, the Kd amounted to 0.00794 µM with HLA-A*03:01 (setting [6]), 0.0584 µM in the assay with HLA-A*11:01 (setting [6]) and 0.0584 µM with HLA-A*68:01 (setting [6]).

In the case of MVLLQMEDK, the Kd with HLA-A*11:01 (setting [4]) came out at 2.01 µM.

ETKGVERLKR: the Kd is 0.336 µM with HLA-A*33:01 (setting [6]) and 0.0142 µM with HLA-A*68:01 (setting [6]).

With GQLKLNWFK, in the assay with HLA-A*11:01 (setting [4]), the Kd came out at 0.0281 µM.

With QLRSLTEILK, the Kd with HLA-A*03:01 (source organism: Homo sapiens) is 0.055 µM.

Turning to NIPTAIQQVR, the Kd with HLA-A*68:01 (setting [6]) was 0.0724 µM.

Consider CEMNHVNSMH, for which the Kd with HLA-A*68:01 (setting [7]) was not below 48.1 µM.

Turning to GVTLFFLSGR, the Kd is not below 70 µM with HLA-A*31:01 (setting [8]) and 0.0562 µM with HLA-A*33:01 (setting [8]).

Turning to EMGLLETTKR, the Kd with HLA-A*33:01 (setting [6]) stood at 0.0582 µM.

FVVTLIPLCR: the Kd stood at 0.0118 µM with HLA-A*33:01 (setting [9]) and 0.0031 µM with HLA-A*68:01 (setting [9]).

Take MVGANASDR: the Kd with HLA-A*68:01 (source organism: Dengue virus 1 Singapore/S275/1990) was found to be 0.0455 µM.

With YVSAITQAER, the Kd in the assay with HLA-A*31:01 (setting [9]) worked out at 0.104 µM; with HLA-A*68:01 (setting [9]) it was 0.0143 µM.

Regarding MFAVGLLFRR, the Kd in the assay with HLA-A*31:01 (setting [5]) was 19 µM; with HLA-A*33:01 (setting [5]), 0.00166 µM; in the assay with HLA-A*68:01 (setting [5]), 0.0618 µM.

In the case of ALTLHWFRK, the Kd turned out to be 0.015 µM with HLA-A*03:01 (setting [9]) and 0.1 µM with HLA-A*11:01 (setting [9]).

For the sequence FLLNISYLCH, the Kd with HLA-A*03:01 (setting [7]) is 11.8 µM; with HLA-A*11:01 (setting [7]) it was not below 46.6 µM; with HLA-A*31:01 (setting [7]), 5.83 µM; with HLA-A*33:01 (setting [7]) it was 0.00532 µM.

As for TKTAVNMLTH, the Kd in the assay with HLA-A*31:01 (setting [10]) was 7.55 µM; with HLA-A*33:01 (setting [10]), not below 35.7 µM; with HLA-A*68:01 (setting [10]) it was 0.87 µM.

For NYKERMVTFK, the Kd with HLA-A*33:01 (setting [9]) worked out at 1.4 µM.

For the sequence ILFEEVMRGK, the Kd with HLA-A*03:01 (setting [6]) amounted to 0.00896 µM.

As for DGCWYGMEIR, in the assay with HLA-A*33:01 (setting [4]), the Kd worked out at 0.154 µM.

On to TTTIFAGHLK, for which the results for the Kd with HLA-A*11:01 (setting [5]) and in the assay with HLA-A*68:01 (setting [5]) were 0.0227 µM and 0.00888 µM, respectively.
